Measured values: patent publication US20190150137A1

Legend:
[1] = target: GST-Fg γ^1-17 (GST fusion protein containing the native human Fg γ 395-411 sequence) (human); assay: ELISA-type assay, ligand coated, apparent Kd
[2] = target: GST-Fg g^1-17D16A (GST fusion of the Fg γ 395-411 sequence with D16A) (human); assay: solid-phase binding assay, wells coated with GST-γ1-17 D16A, anti-His detection, A405
[3] = target: ClfAD327C/K541C (ClfA(229-545)D327C/K541C, disulfide-stabilized closed conformation) (Staphylococcus aureus strain Newman) (UniProt Q2G015); assay: ITC, peptide titrated into ClfAD327C/K541C; panel assigned by the legend paragraph 25 (bovine Fg γ peptide has the lower affinity)

| Substance | Kd [1] [nM] | EC50 (read off the curve) [2] [nM] | Kd [3] [nM] |
| --- | --- | --- | --- |
| ClfA229-545 (recombinant His-tagged N2N3 segment of Staphylococcus aureus clumping factor A) (from UniProt Q2G015 229-545) | 222 | 200 | – |
| ClfAD327C/K541C (ClfA(229-545)D327C/K541C, disulfide-stabilized closed conformation) (from UniProt Q2G015 229-545) | 20 | – | – |
| bovine Fg γ peptide (peptide representing the bovine Fg γ chain sequence) (from UniProt P12799 420-436) | – | – | 20900 |
